Experimental data from US20230158141A1 (YAFEI SHANGHAI BIOLOG MEDICINE SCIENCE AND TECHNOLOGY, published 2023).

T1: IL-10R1-Fc (UniProt Q13651 22-235, limits assumed)
T1 sequence (looked up): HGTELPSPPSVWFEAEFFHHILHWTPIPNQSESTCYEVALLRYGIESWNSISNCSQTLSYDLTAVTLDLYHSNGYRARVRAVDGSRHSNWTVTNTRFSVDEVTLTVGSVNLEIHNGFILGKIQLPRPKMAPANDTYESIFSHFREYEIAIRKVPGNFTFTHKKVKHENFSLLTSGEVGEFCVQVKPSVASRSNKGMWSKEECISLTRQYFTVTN

T2: IL-10R2-Fc/His (UniProt Q08334 20-220, limits assumed)
T2 sequence (looked up): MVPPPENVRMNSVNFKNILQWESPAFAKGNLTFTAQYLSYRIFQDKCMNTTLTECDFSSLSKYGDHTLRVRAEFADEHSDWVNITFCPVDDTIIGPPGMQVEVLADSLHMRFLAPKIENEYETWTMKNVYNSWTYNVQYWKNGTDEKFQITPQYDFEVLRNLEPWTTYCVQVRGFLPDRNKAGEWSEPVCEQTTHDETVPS


How the values were obtained:
[1] = target: T1, IL-10R1-Fc; assay: ELISA, IL-10R1-Fc coated
[2] = target: T2, IL-10R2-Fc/His; assay: ELISA, IL-10R2-Fc/His coated
[3] = target: PD-1 (UniProt Q15116 25-167, limits assumed); assay: ELISA, OD mutant/OD WT; A=90-110%
Target sequence in this assay (Q15116 25-167 limits assumed): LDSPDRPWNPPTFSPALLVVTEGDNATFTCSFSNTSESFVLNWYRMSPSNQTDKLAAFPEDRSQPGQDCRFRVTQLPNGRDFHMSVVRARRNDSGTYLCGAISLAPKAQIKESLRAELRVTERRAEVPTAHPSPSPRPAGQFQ

[4] = target: PD-1 (UniProt Q15116 25-167, limits assumed); assay: ELISA; S9 on the Cys
Target sequence in this assay (Q15116 25-167 limits assumed): as above

Binder | Binding recovery (>60%) [1] [%] | Binding recovery (>60%) [2] [%] | further results
IL-10 Asp25Cys-S48 (ligand, human, UniProt P22301 19-178, looked up, S48 on Cys 25, mature) SPGQGTQSENSCTHFPGNLPNMLRCLRDAFSRVKTFFQMKDQLDNLLLKESLLEDFKGYLGCQALSEMIQFYLEEVMPQAENQDPDIKAHVNSLGENLKTLRLRLRRCHRFLPCENKSKAVEQVKNAFNKLQEKGIYKAMSEFDIFINYIEAYMTMKIRN |  |  | Decreased fold of binding to ligand after Conjugating with S48 [1]: 3 fold; Decreased fold of binding to ligand after Conjugating with S48 [2]: 5 fold
IL-10 Lys119Cys-R4-7 (ligand, human, UniProt P22301 19-178, looked up, R4-7 on Cys 119, mature) SPGQGTQSENSCTHFPGNLPNMLRDLRDAFSRVKTFFQMKDQLDNLLLKESLLEDFKGYLGCQALSEMIQFYLEEVMPQAENQDPDIKAHVNSLGENLKTLRLRLRRCHRFLPCENKSCAVEQVKNAFNKLQEKGIYKAMSEFDIFINYIEAYMTMKIRN | 99 | 106 | 
IL-10 Lys34Cys-R4-7 (ligand, human, UniProt P22301 19-178, looked up, R4-7 on Cys 34, mature) SPGQGTQSENSCTHFPGNLPNMLRDLRDAFSRVCTFFQMKDQLDNLLLKESLLEDFKGYLGCQALSEMIQFYLEEVMPQAENQDPDIKAHVNSLGENLKTLRLRLRRCHRFLPCENKSKAVEQVKNAFNKLQEKGIYKAMSEFDIFINYIEAYMTMKIRN | 99.6 | 97.3 | 
IL-10 Lys130Cys-R4-7 (ligand, human, UniProt P22301 19-178, looked up, R4-7 on Cys 130, mature) SPGQGTQSENSCTHFPGNLPNMLRDLRDAFSRVKTFFQMKDQLDNLLLKESLLEDFKGYLGCQALSEMIQFYLEEVMPQAENQDPDIKAHVNSLGENLKTLRLRLRRCHRFLPCENKSKAVEQVKNAFNCLQEKGIYKAMSEFDIFINYIEAYMTMKIRN | 100 | 99.7 | 
IL-10 Ser31Cys-S48 (ligand, human, UniProt P22301 19-178, looked up, S48 on Cys 31, mature) SPGQGTQSENSCTHFPGNLPNMLRDLRDAFCRVKTFFQMKDQLDNLLLKESLLEDFKGYLGCQALSEMIQFYLEEVMPQAENQDPDIKAHVNSLGENLKTLRLRLRRCHRFLPCENKSKAVEQVKNAFNKLQEKGIYKAMSEFDIFINYIEAYMTMKIRN |  |  | Decreased fold of binding to ligand after Conjugating with S48 [1]: 39 fold; Decreased fold of binding to ligand after Conjugating with S48 [2]: 7 fold
IL-10 Met22Cys-R4-1 (ligand, human, UniProt P22301 19-178, looked up, R4-1 on Cys 22, mature) SPGQGTQSENSCTHFPGNLPNCLRDLRDAFSRVKTFFQMKDQLDNLLLKESLLEDFKGYLGCQALSEMIQFYLEEVMPQAENQDPDIKAHVNSLGENLKTLRLRLRRCHRFLPCENKSKAVEQVKNAFNKLQEKGIYKAMSEFDIFINYIEAYMTMKIRN | 96.8 | 80 | 
IL-10 Ser31Cys-R4-2 (ligand, human, UniProt P22301 19-178, looked up, R4-2 on Cys 31, mature) SPGQGTQSENSCTHFPGNLPNMLRDLRDAFCRVKTFFQMKDQLDNLLLKESLLEDFKGYLGCQALSEMIQFYLEEVMPQAENQDPDIKAHVNSLGENLKTLRLRLRRCHRFLPCENKSKAVEQVKNAFNKLQEKGIYKAMSEFDIFINYIEAYMTMKIRN | 125 | 87.4 | 
IL-10 Thr100Cys-R4-7 (ligand, human, UniProt P22301 19-178, looked up, R4-7 on Cys 100, mature) SPGQGTQSENSCTHFPGNLPNMLRDLRDAFSRVKTFFQMKDQLDNLLLKESLLEDFKGYLGCQALSEMIQFYLEEVMPQAENQDPDIKAHVNSLGENLKCLRLRLRRCHRFLPCENKSKAVEQVKNAFNKLQEKGIYKAMSEFDIFINYIEAYMTMKIRN | 99.3 | 90.7 | 
IL-10 His90Cys-R4-19 (ligand, human, UniProt P22301 19-178, looked up, R4-19 on Cys 90, mature) SPGQGTQSENSCTHFPGNLPNMLRDLRDAFSRVKTFFQMKDQLDNLLLKESLLEDFKGYLGCQALSEMIQFYLEEVMPQAENQDPDIKACVNSLGENLKTLRLRLRRCHRFLPCENKSKAVEQVKNAFNKLQEKGIYKAMSEFDIFINYIEAYMTMKIRN | 86.5 | 79 | 
IL-10 Lys34Cys-S48 (ligand, human, UniProt P22301 19-178, looked up, S48 on Cys 34, mature; also called IL10-K34C-S48) SPGQGTQSENSCTHFPGNLPNMLRDLRDAFSRVCTFFQMKDQLDNLLLKESLLEDFKGYLGCQALSEMIQFYLEEVMPQAENQDPDIKAHVNSLGENLKTLRLRLRRCHRFLPCENKSKAVEQVKNAFNKLQEKGIYKAMSEFDIFINYIEAYMTMKIRN |  |  | Decreased fold of binding to ligand after Conjugating with S48 [1]: 50 fold; Decreased fold of binding to ligand after Conjugating with S48 [2]: 5 fold
anti-PD-1 antibody 1 light chain G28C (antibody, human IgG4 S228P, kappa, V domains shown, also called PD-1-Ab1-Gly28Cys; PD1 Ab-C28) VH: QVQLVQSGVEVKKPGASVKVSCKASGYTFTNYYMYWVRQAPGQGLEWMGGINPSNGGTNFNEKFKNRVTLTTDSSTTTAYMELKSLQFDDTAVYYCARRDYRFDMGFDYWGQGTTVTVSS VL: EIVLTQSPATLSLSPGERATLSCRASKCVSTSGYSYLHWYQQKPGQAPRLLIYLASYLESGVPARFSGSGSGTDFTLTISSLEPEDFAVYYCQHSRDLPLTFGGGTKVEIKR |  |  | binding activity (OD after mutation/OD wild type) [3]: 90 to 110%
anti-PD-1 antibody 1 light chain G33C (antibody, human IgG4 S228P, kappa, V domains shown) VH: QVQLVQSGVEVKKPGASVKVSCKASGYTFTNYYMYWVRQAPGQGLEWMGGINPSNGGTNFNEKFKNRVTLTTDSSTTTAYMELKSLQFDDTAVYYCARRDYRFDMGFDYWGQGTTVTVSS VL: EIVLTQSPATLSLSPGERATLSCRASKGVSTSCYSYLHWYQQKPGQAPRLLIYLASYLESGVPARFSGSGSGTDFTLTISSLEPEDFAVYYCQHSRDLPLTFGGGTKVEIKR |  |  | binding activity (OD after mutation/OD wild type) [3]: 90 to 110%
anti-PD-1 antibody 1 light chain S26C (antibody, human IgG4 S228P, kappa, V domains shown) VH: QVQLVQSGVEVKKPGASVKVSCKASGYTFTNYYMYWVRQAPGQGLEWMGGINPSNGGTNFNEKFKNRVTLTTDSSTTTAYMELKSLQFDDTAVYYCARRDYRFDMGFDYWGQGTTVTVSS VL: EIVLTQSPATLSLSPGERATLSCRACKGVSTSGYSYLHWYQQKPGQAPRLLIYLASYLESGVPARFSGSGSGTDFTLTISSLEPEDFAVYYCQHSRDLPLTFGGGTKVEIKR |  |  | binding activity (OD after mutation/OD wild type) [3]: 90 to 110%
anti-PD-1 antibody 1 light chain G61C (antibody, human IgG4 S228P, kappa, V domains shown) VH: QVQLVQSGVEVKKPGASVKVSCKASGYTFTNYYMYWVRQAPGQGLEWMGGINPSNGGTNFNEKFKNRVTLTTDSSTTTAYMELKSLQFDDTAVYYCARRDYRFDMGFDYWGQGTTVTVSS VL: EIVLTQSPATLSLSPGERATLSCRASKGVSTSGYSYLHWYQQKPGQAPRLLIYLASYLESCVPARFSGSGSGTDFTLTISSLEPEDFAVYYCQHSRDLPLTFGGGTKVEIKR |  |  | binding activity (OD after mutation/OD wild type) [3]: 90 to 110%
anti-PD-1 antibody 2 HC Gly10Cys (antibody, human IgG4 S228P, kappa, V domains shown, arm on Cys10 as named in each row) VH: QVQLVESGGCVVQPGRSLRLDCKASGITFSNSGMHWVRQAPGKGLEWVAVIWYDGSKRYYADSVKGRFTISRDNSKNTLFLQMNSLRAEDTAVYYCATNDDYWGQGTLVTVSS VL: EIVLTQSPATLSLSPGERATLSCRASQSVSSYLAWYQQKPGQAPRLLIYDASNRATGIPARFSGSGSGTDFTLTISSLEPEDFAVYYCQQSSNWPRTFGQGTKVEIKR |  |  | binding activity, % of wild type [4]: 69.3%
anti-PD-1 antibody 2 HC Thr69Cys (antibody, human IgG4 S228P, kappa, V domains shown, arm on Cys69 as named in each row) VH: QVQLVESGGGVVQPGRSLRLDCKASGITFSNSGMHWVRQAPGKGLEWVAVIWYDGSKRYYADSVKGRFCISRDNSKNTLFLQMNSLRAEDTAVYYCATNDDYWGQGTLVTVSS VL: EIVLTQSPATLSLSPGERATLSCRASQSVSSYLAWYQQKPGQAPRLLIYDASNRATGIPARFSGSGSGTDFTLTISSLEPEDFAVYYCQQSSNWPRTFGQGTKVEIKR |  |  | binding activity, % of wild type [4]: 78.6%
